The target in this experiment is Snapin, endogenous, in LNCaP cells (human) (UniProt O95295). As to the kind of experiment: cell-based or functional assay.
UniProt O95295, sequence (O95295 2-136): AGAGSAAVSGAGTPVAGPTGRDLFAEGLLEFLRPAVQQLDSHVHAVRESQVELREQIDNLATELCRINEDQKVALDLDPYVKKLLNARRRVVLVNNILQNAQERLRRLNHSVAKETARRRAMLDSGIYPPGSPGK

“human TMPAP stably expressed in LNCaP cells (LNCaP pMX TMPAP) (enzyme)”: the Pearson's correlation coefficient of co-localization (double immunofluorescence, cell lamellipodia only) amounted to 0.68 and the Pearson's correlation coefficient of co-localization (double immunofluorescence, whole cell) is 0.485.

The record behind these values is patent US20130108609A1.
